Assay results taken from PMC3777854 (Journal of clinical pharmacology, 2013).
“Also recorded” adds a separate entry of the source.

What was measured:
[1] = system: CYP3A; assay: Effect of brentuximab vedotin on midazolam PK
[2] = system: CYP3A; assay: Effect of rifampin on brentuximab vedotin; format: in vivo, human; details: brentuximab vedotin 1.8 mg/kg alone, geometric mean (%CV), n=11
[3] = system: CYP3A; assay: Effect of ketoconazole on brentuximab vedotin; format: in vivo, human; details: geometric mean (%CV); for ADC Cmax: serum, n=16
[4] = Safety assessments: adverse events and laboratory abnormalities; format: in vivo, human
[5] = system: antitherapeutic antibodies (ATA); assay: Antitherapeutic antibodies; format: in vivo, human
[6] = system: relapsed/refractory systemic ALCL; details: 1.8 mg/kg IV every 3 weeks for up to 16 cycles; cited from earlier work

Cc1ncc2n1-c1ccc(Cl)cc1C(c1ccccc1F)=NC2 [Midazolam, midazolam]
Tmax ([1]; human, plasma, intravenous): 2.52 min | half-life ([1]; human, plasma, intravenous): 5.69 h | Tmax ([1]; human, plasma, intravenous, 1 mg): 3 min | AUC(0-inf) ([1]; human, plasma, iv, 1 mg): 79 ng·h/mL | Cmax ([1]; human, plasma, iv, 1 mg): 73 ng/mL | half-life ([1]; human, plasma, iv, 1 mg): 6.4 h

brentuximab vedotin: ADC directed to human CD30: MMAE conjugated to the anti-CD30 antibody cAC10 through a protease-cleavable linker
ADC t1/2 [2]: 5.87 (66) d | ADC Cmax ([2]; serum): 36.74 (34) μg/mL | ADC t1/2 ([3]; brentuximab vedotin 1.2 mg/kg alone, n=11): 5.70 (33) d | ADC Cmax ([3]; brentuximab vedotin 1.2 mg/kg alone): 22.57 (23) μg/mL | ADC Cmax ([3]; brentuximab vedotin 1.2 mg/kg with ketoconazole): 22.38 (70) μg/mL | Adverse events: Any event ([4]; Ket arm, both cycles (n = 19)): 19 (100) n (%) | Adverse events: Diarrhea ([4]; Ket arm, both cycles (n = 19)): 6 (32) n (%) | Adverse events: Fatigue ([4]; Ket arm, both cycles (n = 19)): 8 (42) n (%) | Adverse events: Headache ([4]; Ket arm, both cycles (n = 19)): 4 (21) n (%) | Adverse events: Nausea ([4]; Ket arm, both cycles (n = 19)): 9 (47) n (%) | Adverse events: Neutropenia ([4]; Ket arm, both cycles (n = 19)): 3 (16) n (%) | Adverse events: Pruritis ([4]; Ket arm, both cycles (n = 19)): 4 (21) n (%) | Adverse events: Pyrexia ([4]; Ket arm, both cycles (n = 19)): 7 (37) n (%) | Adverse events: Vomiting ([4]; Ket arm, both cycles (n = 19)): 6 (32) n (%) | Adverse events: Any event ([4]; Ket arm, post-ket (N = 19)): 16 (84) n (%) | Adverse events: Diarrhea ([4]; Ket arm, post-ket (N = 19)): 6 (32) n (%) | Adverse events: Fatigue ([4]; Ket arm, post-ket (N = 19)): 5 (26) n (%) | Adverse events: Headache ([4]; Ket arm, post-ket (N = 19)): 4 (21) n (%) | Adverse events: Nausea ([4]; Ket arm, post-ket (N = 19)): 5 (26) n (%) | Adverse events: Neutropenia ([4]; Ket arm, post-ket (N = 19)): 3 (16) n (%) | Adverse events: Pruritis ([4]; Ket arm, post-ket (N = 19)): 3 (16) n (%) | Adverse events: Pyrexia ([4]; Ket arm, post-ket (N = 19)): 2 (11) n (%) | Adverse events: Vomiting ([4]; Ket arm, post-ket (N = 19)): 6 (32) n (%) | Adverse events: Any event ([4]; Ket arm, pre-ket (N = 19)): 16 (84) n (%) | Adverse events: Diarrhea ([4]; Ket arm, pre-ket (N = 19)): 1 (5) n (%) | Adverse events: Fatigue ([4]; Ket arm, pre-ket (N = 19)): 4 (21) n (%) | Adverse events: Headache ([4]; Ket arm, pre-ket (N = 19)): 0 n (%) | Adverse events: Nausea ([4]; Ket arm, pre-ket (N = 19)): 5 (26) n (%) | Adverse events: Neutropenia ([4]; Ket arm, pre-ket (N = 19)): 0 n (%) | Adverse events: Pruritis ([4]; Ket arm, pre-ket (N = 19)): 1 (5) n (%) | Adverse events: Pyrexia ([4]; Ket arm, pre-ket (N = 19)): 6 (32) n (%) | Adverse events: Vomiting ([4]; Ket arm, pre-ket (N = 19)): 3 (16) n (%) | Adverse events: Any event ([4]; Mid arm, both cycles (n = 16)): 14 (88) n (%) | Adverse events: Diarrhea ([4]; Mid arm, both cycles (n = 16)): 3 (19) n (%) | Adverse events: Fatigue ([4]; Mid arm, both cycles (n = 16)): 3 (19) n (%) | Adverse events: Headache ([4]; Mid arm, both cycles (n = 16)): 4 (25) n (%) | Adverse events: Nausea ([4]; Mid arm, both cycles (n = 16)): 2 (13) n (%) | Adverse events: Neutropenia ([4]; Mid arm, both cycles (n = 16)): 1 (6) n (%) | Adverse events: Pruritis ([4]; Mid arm, both cycles (n = 16)): 1 (6) n (%) | Adverse events: Pyrexia ([4]; Mid arm, both cycles (n = 16)): 0 n (%) | Adverse events: Vomiting ([4]; Mid arm, both cycles (n = 16)): 2 (13) n (%) | Adverse events: Any event ([4]; Rif arm, Cycle 1 (N = 21)): 18 (86) n (%) | Adverse events: Diarrhea ([4]; Rif arm, Cycle 1 (N = 21)): 2 (10) n (%) | Adverse events: Fatigue ([4]; Rif arm, Cycle 1 (N = 21)): 1 (5) n (%) | Adverse events: Headache ([4]; Rif arm, Cycle 1 (N = 21)): 3 (14) n (%) | Adverse events: Nausea ([4]; Rif arm, Cycle 1 (N = 21)): 6 (29) n (%) | Adverse events: Neutropenia ([4]; Rif arm, Cycle 1 (N = 21)): 6 (29) n (%) | Adverse events: Pruritis ([4]; Rif arm, Cycle 1 (N = 21)): 3 (14) n (%) | Adverse events: Pyrexia ([4]; Rif arm, Cycle 1 (N = 21)): 6 (29) n (%) | Adverse events: Vomiting ([4]; Rif arm, Cycle 1 (N = 21)): 2 (10) n (%) | Adverse events: Any event ([4]; Rif arm, Cycle 2 (N = 20)): 17 (85) n (%) | Adverse events: Diarrhea ([4]; Rif arm, Cycle 2 (N = 20)): 3 (15) n (%) | Adverse events: Fatigue ([4]; Rif arm, Cycle 2 (N = 20)): 4 (20) n (%) | Adverse events: Headache ([4]; Rif arm, Cycle 2 (N = 20)): 2 (10) n (%) | Adverse events: Nausea ([4]; Rif arm, Cycle 2 (N = 20)): 2 (10) n (%) | Adverse events: Neutropenia ([4]; Rif arm, Cycle 2 (N = 20)): 5 (25) n (%) | Adverse events: Pruritis ([4]; Rif arm, Cycle 2 (N = 20)): 2 (10) n (%) | Adverse events: Pyrexia ([4]; Rif arm, Cycle 2 (N = 20)): 0 n (%) | Adverse events: Vomiting ([4]; Rif arm, Cycle 2 (N = 20)): 1 (5) n (%) | Adverse events: Any event ([4]; Rif arm, both cycles (n = 21)): 20 (95) n (%) | Adverse events: Diarrhea ([4]; Rif arm, both cycles (n = 21)): 4 (19) n (%) | Adverse events: Fatigue ([4]; Rif arm, both cycles (n = 21)): 5 (24) n (%) | Adverse events: Headache ([4]; Rif arm, both cycles (n = 21)): 5 (24) n (%) | Adverse events: Nausea ([4]; Rif arm, both cycles (n = 21)): 6 (29) n (%) | Adverse events: Neutropenia ([4]; Rif arm, both cycles (n = 21)): 7 (33) n (%) | Adverse events: Pruritis ([4]; Rif arm, both cycles (n = 21)): 4 (19) n (%) | Adverse events: Pyrexia ([4]; Rif arm, both cycles (n = 21)): 6 (29) n (%) | Adverse events: Vomiting ([4]; Rif arm, both cycles (n = 21)): 2 (10 n (%) | Adverse events: Any event ([4]; Total, both cycles (N = 56)): 53 (95) n (%) | Adverse events: Diarrhea ([4]; Total, both cycles (N = 56)): 13 (23) n (%) | Adverse events: Fatigue ([4]; Total, both cycles (N = 56)): 16 (29) n (%) | Adverse events: Headache ([4]; Total, both cycles (N = 56)): 13 (23) n (%) | Adverse events: Nausea ([4]; Total, both cycles (N = 56)): 17 (30) n (%) | Adverse events: Neutropenia ([4]; Total, both cycles (N = 56)): 11 (20) n (%) | Adverse events: Pruritis ([4]; Total, both cycles (N = 56)): 9 (16) n (%) | Adverse events: Pyrexia ([4]; Total, both cycles (N = 56)): 13 (23) n (%) | Adverse events: Vomiting ([4]; Total, both cycles (N = 56)): 10 (18) n (%) | treatment-emergent peripheral neuropathy ([4]; all patients (N = 56), 2 treatment cycles): 18% | low hemoglobin, change from Grade 1 or 2 to ≥ Grade 3 ([4]; all patients, 5 patients): 9% | low lymphocyte counts, change from Grade 1 or 2 to ≥ Grade 3 ([4]; all patients, 5 patients): 9% | low platelet counts, change from Grade 1 or 2 to ≥ Grade 3 ([4]; all patients, 5 patients): 9% | elevated ALT, change from Grade 1 or 2 to ≥ Grade 3 ([4]; all patients, 6 patients): 11% | low white blood cell count, change from Grade 1 or 2 to ≥ Grade 3 ([4]; all patients, 7 patients): 13% | peripheral neuropathy events ([4]; ketoconazole arm, after ketoconazole, 1 patient): 5% | elevated AST (adverse event) ([4]; ketoconazole arm, after ketoconazole, 2 patients): 11% | incidence of adverse events ≥ Grade 3 ([4]; ketoconazole arm, before ketoconazole dosing, 4 patients): 21% | elevated AST (adverse event) ([4]; ketoconazole arm, before ketoconazole, 1 patient): 5% | peripheral neuropathy events ([4]; ketoconazole arm, before ketoconazole, 2 patients): 11% | elevated ALT (adverse event) ([4]; ketoconazole arm, both before and after ketoconazole, 1 patient): 5% | patients with at least 1 positive postbaseline ATA result ([5]; PK-evaluable patients in the ketoconazole arm): 8 of 16 | patients with at least 1 positive postbaseline ATA result ([5]; PK-evaluable patients in the rifampin arm): Five of 14 | patients free of confirmed ATA at baseline but positive at one or both postbaseline timepoints ([5]; all patients): Eighteen | titers of all confirmed positive ATA results ([5]; with one exception (one patient 3125 prior to second dose)): ≤ 125 | objective response rate [6]: 86% | inhibition or induction of CYP3A in humans (conclusion) ([1]; brentuximab vedotin 1.8 mg/kg, midazolam as probe substrate): neither inhibitors nor inducers of CYP3A; also recorded: neither inhibit nor induce CYP3A
